Tests used:
Ramos = experiment: Apoptosis induction by cross-linked IgG (Annexin V/PI); assay type: cell-based, human; conditions: for Apoptosis Induction: Ramos, viable cells after 6 hour incubation, crosslinked, compared to control FITC-8 IgG1
Description: (§1) 2×10^5 B lymphoma cells (Raji or Ramos) or Jurkat T cells were incubated with serially diluted and detoxified scFv's in culture medium for 1 h on ice.
(§2) When whole IgGs were used for apoptosis induction, cross-linking reagent was replaced by goat Fab′2 anti-human Fc γ antibody (Jackson ImmunoResearch) with minimal cross-reactivity with non-IgG antibody isotypes (to avoid unspecific cross-linking of endogenous B lymphoma associated surface immunoglobulins) and incubated, as described above, for 6 h.
(§3) Apoptotic cells were, unless otherwise stated, detected by combined staining with Annexin V Alexa Fluor 488 (AV) and Propidium Iodide (PI) (both from Molecular Probes, Invitrogen) and subsequent flow-cytometric analysis, Cells were defined as viable (AV−/PI−), early apoptotic (AV+/PI−) or late apoptotic/necrotic (AV+/PI+). AV and PI signals were recorded in the FL1 and FL2 or FL3 channels (as indicated in the text), respectively, using a FACSCalibur instrument (BD Biosciences).
(§4) • ^aApoptosis Induction; determined by percentage of viable cells after 6 hour incubation with any of the human antibodies, crosslinked with Goat anti-Human (gamma) Fc specific antibody; −, viability not affected; +, 95-80%; ++, 79-60%; +++, 59-40% viable cells compared to control (human FITC-8 IgG1). […] The cell line dependent MFI value of control human FITC-8 IgG antibody was subtracted from the MFI of each human antibody.
(§5) BI-505 receptor occupancy was studied following FACS analyses of tumor cells incubated with increasing concentrations of BI-505 in vitro. Briefly, following pre-blocking of tumor cell FcγR with 1 mg/ml human IgG on ice for 15 min, tumor cells were incubated with 10-fold serially diluted (10 μg/ml to 0.00001 μg/ml) AF647-BI505 and surface bound BI-505 was recorded as the mean fluorescence intensities (MFI) picked up in the FL4 channel of a FACSCalibur instrument. The experiment was repeated three times and mean MFI values were calculated and plotted as a function of antibody concentration. A binding saturation curve was generated by plotting mean MFI values as a function of BI-505 concentration. The curve was fitted using a five-parameter log-log curve and XLfit software. BI-505 concentration dependent PCD was calculated by plotting the percentage of maximal tumor PCD in vitro as a function of BI-505 concentration in a manner analogous to that described for BI-505 receptor occupancy. Briefly, tumor cells were cultured with increasing concentrations of BI-505 in the presence of hyper-cross-linking antibody reagent for 24 hr, and PCD was monitored after combined staining with Annexin V/AF488 and propidium iodide using flow cytometry. Cells received treatment in triplicate and the experiment was repeated three to five times. Mean percentage of maximal PCD was then plotted as a function of BI-505 concentration and was fitted using a five parameter log-log curve and XLfit software. In vitro PCD and in vivo anti-tumor activity were plotted as a function of receptor occupancy using curve fitting equations and data generated and described above.

Raji = experiment: as above; assay type: cell-based, human; conditions: for Apoptosis Induction: Raji, viable cells after 6 hour incubation, crosslinked, compared to control FITC-8 IgG1
Description: as §1, §2, §3, §4, §5

Daudi = experiment: as above; assay type: cell-based, human; conditions: for Apoptosis Induction: Daudi, viable cells after 6 hour incubation, crosslinked, compared to control FITC-8 IgG1
Description: as §1, §2, §3, §4, §5

[1] = tested on: endothelial cells (HUVEC, HMVEC); experiment: HUVEC and HMVEC apoptosis assay; assay type: cell-based
Description: (FIG. 23G) Antibody-induced endothelial cell apoptosis. HUVEC or HMVEC endothelial cells were incubated with paclitaxel (positive control), BI-505 or isotype control IgG in the presence or absence of cross-linking mAb. Apoptosis was measured by flow-cytometry following staining of cells with Annexin V-AF488.
Based on BI-505's documented ability to confer Fc:FcγR-dependent antitumor activity in malignant B cells, and a proposed general negative role for complement activation with regard to antibody tolerability (Lim et al.; van der Kolk et al., 2001), direct cytotoxic effects (PCD, ADCC, and CDC) of BI-505 in ICAM-1-expressing human peripheral blood B cells and endothelial cells were examined.
HUVEC (Cascade Biologics, pool of donors) and HMVEC (Cascade Biologics) were plated in 6-well plates (80 000-120 000 cells/well) in the presence or absence of 200 U/mL IFNγ, in order to induce ICAM-1 expression. Media was changed the day before apoptosis-induction experiments were performed and titrated concentrations of BI-505, enlimomab or isotype control antibody were added to the cells, in the presence or absence of cross-linking Fab (ab′)2 (same as the B-cell protocol). […] Necrotic cells were identified by increased fluorescence in the FL-4 channel and apoptotic cells by increased signal in the FL-1 channel on a flow cytometer (FACSCalibur, BD Bioscience).

PC-3 cells = experiment: Apoptosis induction in carcinoma cells (cross-linked IgG, 16-24 hours, Annexin V/PI); assay type: cell-based, human; conditions: PC-3, cross-linked IgG
Description: The prostate carcinoma cell line PC-3 was grown in Complete Growth Medium (RPMI 1640, supplemented with 10% FCS, 10 mM HEPES, and 2 mM L-Glutamine) to 80% confluency in a 6 well plate. The prostate carcinoma cell line DU145 was grown in MEM with Earl's salts, supplemented with 10% FCS, 1 mM sodium pyruvate, and 1 mM non-essential amino acids and the derivate of a melanoma cell line MDA MB 435 was grown in DMEM supplemented with 10% FCS.
For apoptosis assays cells were washed in PBS and serially diluted B11 IgG1 (or B1 IgG1, Trastuzumab or negative antibody control for controls) was added to individual wells and binding was allowed during a 1-2 h incubation at 4° C. The cells were washed and Complete Growth Medium was added, containing cross-linking antibody, Fab′2 Goat anti-Human Fab′2, at 10 μg/ml. Cells were incubated in a humidified atmosphere, with 5% CO2 at 37° C., for 16-24 hours. […] The percentage apoptotic cells was determined by the formula: % apoptotic cells=100−% AF488−AV/PI−/−.
Cells were seeded in 6 well plates with Complete Growth Medium three days before the onset of the experiment. […] Cells were washed in ice-cold PBS, subjected to Annexin V/propidium iodide staining, and analysed for viability/apoptosis as described in example 5 above.

Molecule	Apoptosis Induction (Ramos)	Apoptosis Induction (Raji)	Apoptosis Induction (Daudi)	cell death in normal cells [1]	Apoptosis Induction (PC-3 cells)	PCD induction (Ramos; ICAM-1-expressing Ramos lymphoma cells)	PCD induction (Raji; ICAM-1-expressing Raji lymphoma cells)	PCD induction (Daudi; ICAM-1-expressing Daudi lymphoma cells)
C11: fully human IgG1 antibody specific for surface IgM; VH and VL sequences of FIG. 11 (SEQ ID NOs. 10 and 12) (antibody, listed as Homo sapiens, V domains shown) VH: EVQLLESGGGLVQPGGSLRLSCAASGFTFGSYEMNWVRQAPGKGLEWVSVIYSGGSTYYADSVEGRFTISRDNSKNTLYLQMNSLRAEDTAVYYCARDTNPYYYYGMDVWGQGTLVTVSS VL: QSVLTQPPSASGTPGQRVTISCSGSSSNIGNNAVNWYQQLPGTAPKLLIYRNNQRPSGVPDRFSGSKSGTSASLAISGLRSEDEADYYCQSYDSSLNGQVFGGGTKLTVLG	+++ (59-40% viable cells compared to control (human FITC-8 IgG1))	+ (95-80%)	+ (95-80%)					
B11: fully human IgG1 antibody specific for ICAM-1; VH and VL sequences of FIG. 10 (SEQ ID NOs. 6 and 8) (antibody, listed as Homo sapiens, V domains shown) VH: EVQLLESGGGLVQPGGSLRLSCAASGFTFSNAWMSWVRQAPGKGLEWVAFIWYDGSNKYYADSVKGRFTISRDNSKNTLYLQMNSLRAEDTAVYYCARYSGWYFDYWGQGTLVTVSS VL: QSVLTQPPSASGTPGQRVTISCTGSSSNIGAGYDVHWYQQLPGTAPKLLIYDNNNRPSGVPDRFSGSKSGTSASLAISGLRSEDEADYYCQSYDSSLSAWLFGGGTKLTVLG	++ (79-60%)	+ (95-80%)	+ (95-80%)	did not induce cell death	induce apoptosis	dose-dependently induced PCD	dose-dependently induced PCD	dose-dependently induced PCD

From patent publication US9803013B2, “Biological materials and uses thereof” (BioInvent International AB, priority 2005, dated 2017)
